Target: the molecule itself
Experiment: cryo-EM structure

B1: Human Best1 protein purified for cryo-EM (GABA-bound pentamer) (natural protein)
chain: TITYTSQVANARLGSFSRLLLCWRGSIYKLLYGEFLIFLLCYYIIRFIYRLALTEEQQLMFEKLTLYCDSYIQLIPISFVLGFYVTLVVTRWWNQYENLPWPDRLMSLVSGFVEGKDEQGRLLRRTLIRYANLGNVLILRSVSTAVYKRFPSAQHLVQAGFMTPAEHKQLEKLSLPHNMFWVPWVWFANLSMKAWLGGRIRDPILLQSLLNEMNTLRTQCGHLYAYDWISIPLVYTQVVTVAVYSFFLTCLVGRQFLNPAKAYPGHELDLVVPVFTFLQFFFYVGWLKVAEQLINPFGEDDDDFETNWIVDRNLQVSLLAVDEMHQDLPRMEPDMYWNKPEPQPPYTAASAQFRRASFMGSTFNISLNKEEMEFQPNQEDEEDAHAGIIGRFLGLQSHDHHPPRANSRTKLLWPKRESLLHEGLPKNHKAAKQNVRGQEDNKAWKLKAVDAFKSAPLYQRPGYYSAPQTPLSPTPMFFPLEPSAPSKLHSVTGIDTKDKSLKTVSSGAKKSFELLSESDGALMEHPEVSQVRRKTVEFNLTDMPEIPENHLKEPLEQSPTNIHTTLKDHMDPYWALENRDEAHS
stoichiometry N: 5

Reference: publication PMC11401937 (Nature Communications, 2024)
